Consider 167 variants from the RNAGym collection of RNA variant scans (doi:10.7554/elife.80360).

B1: HDV Ribozyme (parent)
chain: GGCCGGCAUGGUCCCAGCCUCCUCGCUGGCGCCGGCUGGGCAACAUUCCGAGGGGACCGUCCCCUCGGUAAUGGCGAAUGGGACCCA

Variants of B1 are the subject of this data set. In words: self-cleavage, relative activity (ratio to wild type); higher = more cleavage; co-transcriptional.
Consider C15A C30G, for which the self-cleavage is 0.138.

For C15A C30A, the self-cleavage was determined as 0.326.

With C14U U60C, the self-cleavage was found to be 1.11.

Turning to C14U U60G, the self-cleavage is 0.772.

For the variant C14U U60A, the self-cleavage came out at 1.23.

Consider C15G C64G, for which the self-cleavage was found to be 0.415.

As to C15G C64A, the self-cleavage is 0.538.

With C14G G28C, the self-cleavage came to 0.0415.

Turning to C15G C36G, the self-cleavage was determined as 0.

As for C15G C36A, the self-cleavage worked out at 0.306.

In the case of C15G C19U, the self-cleavage stood at 0.0898.

Take C15G C19A: the self-cleavage came out at 0.0831.

In the case of C15G A71C, the self-cleavage amounted to 0.222.

For the variant C15G A71U, the self-cleavage came to 0.489.

On to C14G U46A, for which the self-cleavage is 0.237.

For the variant C14G U46G, the self-cleavage stood at 0.237.

As for C14U A87G, the self-cleavage came out at 1.07.

As to C14G C85G, the self-cleavage came out at 0.415.

For the variant C14G C85A, the self-cleavage was 0.166.

Take C14G G54A: the self-cleavage came to 0.639.

Consider C14G G54U, for which the self-cleavage is 0.776.

With C14G G54C, the self-cleavage worked out at 0.277.

Turning to C14G G17C, the self-cleavage turned out to be 0.0615.

For C14G U27A, the self-cleavage stood at 0.7.

As for C15A G38C, the self-cleavage was 0.0831.

Consider C15A G38U, for which the self-cleavage was 0.

As for C14U C66G, the self-cleavage was 0.884.

As for C14U C66A, the self-cleavage is 0.877.

For C15A C22G, the self-cleavage stood at 0.113.

As for C15A C22U, the self-cleavage is 0.231.

C15A C22A: the self-cleavage came to 0.111.

Take C15A G76U: the self-cleavage came to 0.919.

On to C14U C30G, for which the self-cleavage turned out to be 0.0923.

Take C14U G31C: the self-cleavage worked out at 0.342.

Consider C14U G31U, for which the self-cleavage worked out at 0.429.

As to C14G U79A, the self-cleavage is 0.266.

Turning to C14G G59C, the self-cleavage was found to be 0.969.

For the variant C15A A77U, the self-cleavage turned out to be 0.302.

Take C15A U20A: the self-cleavage was determined as 0.0573.

For the variant C15A U20G, the self-cleavage was 0.19.

Regarding C14G G80A, the self-cleavage turned out to be 0.346.

With C15A A78G, the self-cleavage came out at 0.447.

As for C15A A78U, the self-cleavage was found to be 0.0639.

On to C15A C75G, for which the self-cleavage came out at 0.142.

Regarding C15A C33G, the self-cleavage worked out at 0.

Consider C14G G55A, for which the self-cleavage was 0.59.

Turning to C14G G55U, the self-cleavage was found to be 0.682.

For C14G G55C, the self-cleavage came out at 0.665.

Consider C14G G25U, for which the self-cleavage came to 0.0504.

Take C14G G25C: the self-cleavage came out at 0.

As to C14U A42U, the self-cleavage was 0.587.

With C14U A42C, the self-cleavage turned out to be 0.232.

C14G U23C: the self-cleavage is 0.712.

C14G U23G: the self-cleavage amounted to 0.453.

Consider C14G G52U, for which the self-cleavage was 0.391.

Take C15A G17C: the self-cleavage was found to be 0.0978.

For C14U C48A, the self-cleavage stood at 0.928.

Turning to C14U C48G, the self-cleavage worked out at 1.08.

In the case of C14U, the self-cleavage worked out at 1.09.

For the variant C15A U65C, the self-cleavage was 0.519.

Turning to C15A U65A, the self-cleavage was 0.388.

Turning to C15A C63A, the self-cleavage was found to be 0.403.

On to C14G G50U, for which the self-cleavage worked out at 0.639.

As for C14G G50A, the self-cleavage was 1.15.

As for C14G G31A, the self-cleavage stood at 0.324.

Turning to C14G G31U, the self-cleavage came out at 0.0386.

For C14G U37G, the self-cleavage worked out at 0.

In the case of C15A C64G, the self-cleavage worked out at 0.81.

Consider C15A C64A, for which the self-cleavage was 0.689.

As to C15A C64U, the self-cleavage stood at 0.623.

With C15A A70U, the self-cleavage was 0.723.

In the case of C15A A70G, the self-cleavage is 0.755.

For the variant C14U G55U, the self-cleavage was 1.24.

For the variant C15G C22U, the self-cleavage came out at 0.222.

For C15G C58U, the self-cleavage came out at 0.482.

C14G C84U: the self-cleavage was 0.415.

Regarding C15G C66A, the self-cleavage turned out to be 0.665.

On to C15G C66G, for which the self-cleavage came to 0.475.

With C14U C24U, the self-cleavage stood at 0.658.

Consider C15A C48U, for which the self-cleavage was 0.54.

With C14G G81U, the self-cleavage turned out to be 0.923.

As to C14G U72G, the self-cleavage turned out to be 0.312.

As to C14G U72A, the self-cleavage worked out at 0.383.

Regarding C14G U72C, the self-cleavage was found to be 0.0978.

Regarding C15G A16C, the self-cleavage was determined as 0.369.

On to C15A U60C, for which the self-cleavage amounted to 0.538.

As to C15A U60A, the self-cleavage is 0.623.

With C14U C19U, the self-cleavage turned out to be 0.0723.

With C14U C19G, the self-cleavage is 0.0396.

Regarding C14U U69A, the self-cleavage was found to be 1.02.

Turning to C14U A70C, the self-cleavage was determined as 1.02.

As to C14U A70G, the self-cleavage is 0.931.

Turning to C14U A70U, the self-cleavage is 1.08.

Take C14U G34U: the self-cleavage amounted to 0.248.

Consider C14U U20A, for which the self-cleavage was determined as 0.145.

C14U U20G: the self-cleavage stood at 0.145.

Turning to C14U C63U, the self-cleavage stood at 0.927.

As for C14U C63G, the self-cleavage is 0.831.

For the variant C14U C63A, the self-cleavage is 0.957.

C15A G50C: the self-cleavage came to 0.404.

For C15A G50A, the self-cleavage amounted to 0.527.

Regarding C15A G50U, the self-cleavage was 0.674.

Consider C15A A51U, for which the self-cleavage came out at 0.573.

Regarding C15A A51C, the self-cleavage is 1.14.

As to C15A A51G, the self-cleavage worked out at 0.923.

For C14G C75U, the self-cleavage came to 0.155.

Consider C14G C75G, for which the self-cleavage amounted to 0.0554.

Consider C14G C58U, for which the self-cleavage worked out at 0.646.

Take C14U G81C: the self-cleavage came to 0.806.

In the case of C15A C18A, the self-cleavage stood at 0.115.

On to C15A C18G, for which the self-cleavage is 0.111.

In the case of C14U C41U, the self-cleavage was 1.11.

For the variant C14G G68A, the self-cleavage came out at 0.431.

In the case of C15A C19A, the self-cleavage turned out to be 0.147.

With C14U A83G, the self-cleavage was found to be 0.54.

On to C14U A83U, for which the self-cleavage was found to be 0.378.

C15A C84G: the self-cleavage is 0.244.

C14U G35C: the self-cleavage is 0.123.

Turning to C14U G35U, the self-cleavage was found to be 0.288.

In the case of C15A C58U, the self-cleavage turned out to be 0.458.

With C14U C61U, the self-cleavage worked out at 1.22.

Take C14U C61A: the self-cleavage was found to be 1.14.

With C15A G28C, the self-cleavage is 0.0449.

On to C15A G52A, for which the self-cleavage is 0.708.

Consider C15A G52C, for which the self-cleavage amounted to 0.655.

Turning to C15G C32A, the self-cleavage worked out at 0.158.

For the variant C15G C32G, the self-cleavage worked out at 0.145.

On to C14G G82U, for which the self-cleavage was 0.196.

C14G G82C: the self-cleavage was 0.525.

Turning to C14G G82A, the self-cleavage turned out to be 0.158.

For the variant C15A G74C, the self-cleavage was found to be 0.185.

For C15A G74A, the self-cleavage amounted to 0.174.

As for C15A G74U, the self-cleavage was found to be 0.218.

Take C14G G39A: the self-cleavage worked out at 0.277.

With C14G G39U, the self-cleavage stood at 0.237.

Regarding C14G G39C, the self-cleavage amounted to 0.217.

As for C15G C26G, the self-cleavage came to 0.431.

With C15G C26A, the self-cleavage was 0.332.

Consider C15G C26U, for which the self-cleavage was 0.623.

As to C14U A71U, the self-cleavage turned out to be 1.1.

Turning to C14U A71G, the self-cleavage is 0.883.

Turning to C14U A71C, the self-cleavage was found to be 0.831.

For the variant C15G A77C, the self-cleavage turned out to be 0.128.

As for C14U G28C, the self-cleavage came to 0.237.

Turning to C14U G28A, the self-cleavage worked out at 0.0811.

In the case of C14U U37G, the self-cleavage came to 0.199.

Turning to C15A G25C, the self-cleavage was 0.0692.

Regarding C14U G39A, the self-cleavage was 0.284.

In the case of C14U G39C, the self-cleavage worked out at 0.262.

Consider C14G U20C, for which the self-cleavage amounted to 0.0554.

With C14G U20A, the self-cleavage is 0.

On to C14G C64A, for which the self-cleavage was 0.511.

As for C14G C64U, the self-cleavage came out at 0.516.

As for C14U G82U, the self-cleavage is 0.494.

In the case of C14U G82C, the self-cleavage came out at 0.415.

Take C15A G34A: the self-cleavage came to 0.0723.

In the case of C15A G67U, the self-cleavage was 0.633.

Turning to C15A U79C, the self-cleavage stood at 0.326.

Regarding C14U C57A, the self-cleavage was 1.07.

On to C14U C62U, for which the self-cleavage was 0.923.

On to C14U C62G, for which the self-cleavage was 0.751.

Consider C14G C57G, for which the self-cleavage is 0.782.

For the variant C14G C57A, the self-cleavage was found to be 0.748.

In the case of C14G C57U, the self-cleavage is 0.665.

As for C14U A45C, the self-cleavage stood at 0.646.

Regarding C15A C85A, the self-cleavage stood at 0.623.

C15A C85U: the self-cleavage was determined as 0.755.
